Experimental data: article PMC12065894

Columns and labels:
[1] = target: dasTMPRSS2 (active TMPRSS2 ectodomain with DDDDK zymogen activation motif) (human) (UniProt O15393)
[2] = target: dasTMPRSS11D (active, autocleaved TMPRSS11D with DDDDK zymogen activation motif) (human) (UniProt O60235)
[3] = target: dasTMPRSS2 (active TMPRSS2 ectodomain with DDDDK zymogen activation motif) (human) (UniProt O15393); remark: listed apart in the source

Chain of dasTMPRSS2 (active TMPRSS2 ectodomain with DDDDK zymogen activation motif) (human) (O15393 other isoform, or with tags, fused parts or gaps, chain 1 of 2): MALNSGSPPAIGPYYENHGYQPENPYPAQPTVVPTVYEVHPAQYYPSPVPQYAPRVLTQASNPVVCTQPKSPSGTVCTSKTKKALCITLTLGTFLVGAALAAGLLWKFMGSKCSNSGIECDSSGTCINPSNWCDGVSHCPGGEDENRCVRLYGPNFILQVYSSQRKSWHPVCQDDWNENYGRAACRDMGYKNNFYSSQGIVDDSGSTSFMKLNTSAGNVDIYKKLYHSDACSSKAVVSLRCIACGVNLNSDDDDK
Chain of dasTMPRSS2 (active TMPRSS2 ectodomain with DDDDK zymogen activation motif) (human) (O15393 256-492, chain 2 of 2): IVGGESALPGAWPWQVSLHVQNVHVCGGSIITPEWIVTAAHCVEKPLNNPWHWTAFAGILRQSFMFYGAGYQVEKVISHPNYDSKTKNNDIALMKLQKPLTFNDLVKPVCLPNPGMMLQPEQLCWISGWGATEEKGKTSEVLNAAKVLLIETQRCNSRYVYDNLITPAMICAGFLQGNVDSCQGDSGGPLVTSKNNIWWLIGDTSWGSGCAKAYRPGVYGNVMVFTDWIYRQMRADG
Chain of dasTMPRSS11D (active, autocleaved TMPRSS11D with DDDDK zymogen activation motif) (human) (O60235 other isoform, or with tags, fused parts or gaps L182D | S183D | E184D | Q185D | R186K, chain 1 of 2): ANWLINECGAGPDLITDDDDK
Chain of dasTMPRSS11D (active, autocleaved TMPRSS11D with DDDDK zymogen activation motif) (human) (O60235 187-418, chain 2 of 2): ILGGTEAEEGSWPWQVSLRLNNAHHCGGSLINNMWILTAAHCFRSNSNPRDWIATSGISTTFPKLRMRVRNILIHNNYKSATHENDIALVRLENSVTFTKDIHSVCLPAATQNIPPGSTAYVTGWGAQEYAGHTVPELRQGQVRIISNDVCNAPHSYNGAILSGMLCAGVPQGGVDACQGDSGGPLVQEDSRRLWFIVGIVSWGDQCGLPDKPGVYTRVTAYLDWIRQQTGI

| Substance | IC50 of inhibition of dasTMPRSS2 (1.5 nM) peptidase activity on Boc-QAR-AMC (100 µM), 10 min pre-incubation [1] [nM] | IC50 of inhibition of dasTMPRSS11D (15 nM) peptidase activity on Boc-QAR-AMC (100 µM) [2] [nM] | IC50 of inhibition of dasTMPRSS2 (1.5 nM) peptidase activity on Boc-QAR-AMC (100 µM) [3] [nM] |
| --- | --- | --- | --- |
| Peptidomimetic 1, Ac-Glu-Gln-Arg-kbt (peptide) | 2.2 |  |  |
| Peptidomimetic 2, Ac-Gln-Ser-Arg-kbt (peptide) | 2.1 |  |  |
| Peptidomimetic 3, Ac-Glu-Glu-Arg-kbt (peptide) |  | 7.1 | 3.2 |
| Peptidomimetic 4, Ac-Glu-D-Glu-Arg-kbt (peptide) |  | 111 | 42 |
| Peptidomimetic 5, Ac-Glu-Orn-Arg-kbt (peptide) |  | 2100 | 6.2 |
